# B1: full-length wild-type rat P2X7 receptor (receptor, UniProt Q64663 1-595, looked up)
# chain: MPACCSWNDVFQYETNKVTRIQSVNYGTIKWILHMTVFSYVSFALMSDKLYQRKEPLISSVHTKVKGVAEVTENVTEGGVTKLVHGIFDTADYTLPLQGNSFFVMTNYLKSEGQEQKLCPEYPSRGKQCHSDQGCIKGWMDPQSKGIQTGRCIPYDQKRKTCEIFAWCPAEEGKEAPRPALLRSAENFTVLIKNNIDFPGHNYTTRNILPGMNISCTFHKTWNPQCPIFRLGDIFQEIGENFTEVAVQGGIMGIEIYWDCNLDSWSHRCQPKYSFRRLDDKYTNESLFPGYNFRYAKYYKENGMEKRTLIKAFGVRFDILVFGTGGKFDIIQLVVYIGSTLSYFGLATVCIDLIINTYASTCCRSRVYPSCKCCEPCAVNEYYYRKKCEPIVEPKPTLKYVSFVDEPHIWMVDQQLLGKSLQDVKGQEVPRPQTDFLELSRLSLSLHHSPPIPGQPEEMQLLQIEAVPRSRDSPDWCQCGNCLPSQLPENRRALEELCCRRKPGQCITTSELFSKIVLSREALQLLLLYQEPLLALEGEAINSKLRHCAYRSYATWRFVSQDMADFAILPSCCRWKIRKEFPKTQGQYSGFKYPY
# modifications: limited glycosylation and acylation included in the models (sites not given)
# Target: the molecule itself
# Assay: cryo-EM structure
protein,measurement,value
B1,binding result,binds

# From PMC11303814 (Nature Communications, 2024)
